Measurements: US5543392A, “Digestive tract cell activating agent of EGF and lactoferrin” (Morinaga Milk Industry Co., Ltd., priority 1992, dated 1996)

Experiments:
IEC18 cells [1] = assay: Test 3: proliferation of small intestine epithelial cells (cell count by hemocytometer); format: cell-based, rat; conditions: single addition of 50 μg/ml; sixth and tenth days of culture; compared with control group and EGF single group
Method: ICE18 cells (the same ones as in the Test 1) were inoculated onto a 24-well culture plate by 5,000 cells per well, and were cultured for ten days with 1% FBS DMEM (0.5 ml) containing the following test subjects. During this test period, the medium was replaced on the third and the sixth days, and the number of cells was measured on the third, the sixth and the tenth days. The number of cells was counted by a hemocytometer after treating the cells with 0.25% trypsin solution and suspending them in the solution.
The test subjects included a sample added with nothing, a sample added with 10 ng/ml EGF, a sample added with 50 μg/ml bLf or bLf-Hy, and a sample added with 10 ng/ml EGF and 50 μg/ml bLf or bLf-Hy.

IEC18 cells [2] = assay: Test 2: effect of simultaneous use of Lf or Lf-Hy and EGF on DNA synthesis (3H-thymidine incorporation); format: cell-based, rat; conditions: single use of bLf, various concentrations

B1: bLf: bovine lactoferrin (manufactured by Yukijirushi Nyugyo Company) (protein, UniProt P24627 20-708, looked up)
Lactotransferrin: APRKNVRWCTISQPEWFKCRRWQWRMKKLGAPSITCVRRAFALECIRAIAEKKADAVTLDGGMVFEAGRDPYKLRPVAAEIYGTKESPQTHYYAVAVVKKGSNFQLDQLQGRKSCHTGLGRSAGWIIPMGILRPYLSWTESLEPLQGAVAKFFSASCVPCIDRQAYPNLCQLCKGEGENQCACSSREPYFGYSGAFKCLQDGAGDVAFVKETTVFENLPEKADRDQYELLCLNNSRAPVDAFKECHLAQVPSHAVVARSVDGKEDLIWKLLSKAQEKFGKNKSRSFQLFGSPPGQRDLLFKDSALGFLRIPSKVDSALYLGSRYLTTLKNLRETAEEVKARYTRVVWCAVGPEEQKKCQQWSQQSGQNVTCATASTTDDCIVLVLKGEADALNLDGGYIYTAGKCGLVPVLAENRKSSKHSSLDCVLRPTEGYLAVAVVKKANEGLTWNSLKDKKSCHTAVDRTAGWNIPMGLIVNQTGSCAFDEFFSQSCAPGADPKSRLCALCAGDDQGLDKCVPNSKEKYYGYTGAFRCLAEDVGDVAFVKNDTVWENTNGESTADWAKNLNREDFRLLCLDGTRKPVTEAQSCHLAVAPNHAVVSRSDRAAHVKQVLLHQQALFGKNGKNCPDKFCLFKSETKNLLFNDNTECLAKLGGRPTYEEYLGTEYVTAIANLKKCSTSPLLEACAFLTR
number of cells (FIGS. 3 and 4) (IEC18 cells [1]): significantly increased
quantity of incorporated 3H-thymidine into DNA (FIG. 1) (IEC18 cells [2]): no effect
